The data set concerns the molecule itself. Description: 2D electron crystallography; lysenin in a lipid bilayer (liposomes containing SM); 2D crystals, trigonal array with space group p3, projection map at 14 Å.

B1: lysenin (natural protein)
chain: MSAKAAEGYEQIEVDVVAVWKEGYVYENRGSTSVDQKITITKGMKNVNSETRTVTATHSIGSTISTGDAFEIGSVEVSYSHSHEESQVSMTETEVYESKVIEHTITIPPTSKFTRWQLNADVGGADIEYMYLIDEVTPIGGTQSIPQVITSRAKIIVGRQIILGKTEIRIKHAERKEYMTVVSRKSWPAATLGHSKLFKFVLYEDWGGFRIKTLNTMYSGYEYAYSSDQGGIYFDQGTDNPKQRWAINKSLPLRHGDVVTFMNKYFTRSGLCYDDGPATNVYCLDKREDKWILEVVG
notes: A thrombin cleavage site and six histidines follow the C terminus (printed as …); also called WT lysenin; native lysenin; source: E. coli BL21, purified (Ni-NTA IMAC, SEC)
As for B1, the binding result is listed as “binds”.

The values are drawn from PMC3526787, “Structures of Lysenin Reveal a Shared Evolutionary Origin for Pore-Forming Proteins And Its Mode of Sphingomyelin Recognition” (Structure(London, England:1993), 2012).
